One data set has as its system HT1080 tumor. The data set can be described thus: Organ distribution of 177Lu-labelled peptides in HT1080 xenograft mice. The data set is classed as in vivo, BALB/c nu/nu mice. The procedure:
(§1) General procedure for radiolabelling with Lu-177.
(§2) • 50 μL 0.25 M Na-Acetate buffer pH 5.2+0.1% Tween 20; • 10 μL [Lu-177]LuCl3 in 0.05 M HCl; and • 2 μL of the diluted peptide (2 nmols). […]
(§3) Organ distribution studies, general method: For organ distribution, the respective dose is prepared by dilution of the labeling reaction mixture in injection buffer (0.25 M Na-Acetate pH 7+0.05% Tween20). The ^177Lu-radiolabeled peptide was injected via the tail vein of the nu/nu mice (50 kBq per mouse), transplanted with the respective cell line. At indicated time points after injection the animals were sacrificed. Blood, heart, lung, spleen, liver, kidney, muscle, brain, femur, and the tumor were dissected, blotted dry, and weighed. The radioactivity was measured with a γ-counter (CobraII; Canberra Packard) along with a sample of the injection solution to calculate the percentage injected dose per gram of tissue (% ID/g).
(§4) The γ- and β-emitter ^177LuCl3 (NEZ307D, Perkin Elmer, in 0.04 M HCl), with a t1/2 of 6.7 days was used for both in vivo biodistribution and internalization studies. Labeling reactions were performed by adding 10 μL ^177LuCl3 (˜10 MBq) in 50 mM HCl, 2 μL of the diluted peptide (1 mM solution in 50 mM HEPES buffer pH 7+0.1% Tween 20 diluted from a 10 mM DMSO stock) to 50 μL 50 mM HEPES buffer pH 7 supplemented with 0.1% Tween 20. The reaction mixture was incubated at 98° C. for 10 minutes. The radiochemical yield (RCY) was determined using high performance liquid chromatography (HPLC) system equipped with a Latek P402 (Latek, Eppelheim, Germany), a HITACHI variable UV detector (absorbance was measured at 214 and 254 nm) and a gamma detector (Bioscan, WA, USA), using a Chromolith RP-18 column (100×4.6 mm; Merck). The analytical HPLC run was performed at 4 mL/min, using a linear A (0.1% trifluoroacetic acid (TFA) in water) to B (0.1% TFA in acetonitrile) gradient (0% B to 100% B in 6 min). Thin-layer chromatography was performed in parallel to confirm the results of the radio-HPLC. The RCY was generally >95%, and thus, the output of labelling reactions was directly diluted with the appropriate buffer and further unlabeled peptide if required, to use in subsequent experiments.
(§5) 5×10^6 cells of HT1080 were subcutaneously inoculated into the right trunk of male 6-week-old BALB/c nu/nu mice (Charles River Laboratories). The tumors were grown for approximately 1 week, to a maximum size of ˜200 mm^3. Respective doses were prepared by mixing a fixed quantity of 5 pmoles ^177Lu labelled peptides (at approx. 50 kBq) with different quantities of non-labelled peptide (derived from 1 mM stock solution in 0.25 M sodium acetate pH 7+0.05% Tween20) in 100 μL injection buffer (0.25 M sodium acetate pH 7+0.05% Tween20). 3 animals were used per dose and timepoint. Radiolabelled peptide solutions were injected via the tail vein, followed by sacrifice at various time points. Organs of interest (blood, heart, lung, spleen, liver, kidney, muscle, small intestine, brain, HT1080 tumor) were dissected, blotted dry, and weighed. The radioactivity was measured using a gamma counter and calculated as % ID/g.

A further data set addresses MT1-MMP hemopexin domain (Homo sapiens, UniProt P50281). The data set can be described thus: Fluorescence polarization direct binding / competition assay to MT1-MMP hemopexin domain. The procedure: Direct Binding Fluorescence Polarization or Anisotropy Assays are performed by titrating a constant concentration of fluorescent tracer (here, the fluoresceinated bicyclic peptide to be studied) with its binding partner (here, the MT1-MMP hemopexin domain). As the concentration of binding partner increases during the titration, the polarization signal changes in proportion to the fraction of bound and unbound material. This allows determination of […] (Kd) quantitatively. Assay data can be fit using standard ligand binding equations.
Typically, concentrations of the tracer are ideally well below the Kd of the tracer: titrant pair, and concentrations chosen are usually at ˜1 nM or less. The titrant (binding partner) concentration is varied from 0.1 nM up to typically 5 μM. The range is chosen such that the maximum change in fluorescent polarization can be observed. Buffers employed are phosphate buffered saline in the presence of 0.01% Tween. Experiments were run in black 384 well low-bind/low volume plates (Corning 3820), and the fluorescent polarization signal was measured using a BMG Pherastar FS plate reader. Fluorescent tracers referred to in the text are bicyclic peptides that have been fluoresceinated using 5,6-carboxyfluorescein. Fluoresceination may be performed on the N-terminal amino group of the peptide, which is separated from the bicycle core sequence by a sarcosine spacer (usually Sar10 (SEQ ID NO: 73)). This can be done during Fmoc solid phase synthesis or post-synthetically (after cyclization with the molecular scaffold reagent and purification) if the N-terminal amino group is unique to the peptide. Fluoresceination can also be performed on the C-terminus, usually on a Lysine introduced as the first C-terminal residue, which is then separated from the bicycle core sequence by a sarcosine spacer (usually Sar6 (SEQ ID NO: 69)). Thus, N-terminal tracers can have a molecular format described as Fluo-Ala-Sar10-A (SEQ ID NO: 72) (BicycleCoreSequence), and (BicycleCoreSequence)-A-Sar6-K (Fluo) (SEQ ID NO: 67) for a C-terminally fluoresceinated construct.
Fluorescent tracers used in the Examples are A-(17-69)-A-Sar6-K (Fluo) (SEQ ID NO: 67), A-(17-69-07)-A-Sar6-K (Fluo) (SEQ ID NO: 67), and A-(17-69-12)-A-Sar6-K (Fluo) (SEQ ID NO: 67). Due to the acidic nature of the 17-69 fluorescent peptides, they were typically prepared as concentrated DMSO stocks, from which dilution were prepared in 100 mM Tris pH 8 buffer.
Due to their high affinities to the MT1-MMP Hemopexin domain (PEX), the fluoresceinated derivatives of 17-69-07 and 17-69-12 (denoted as 17-69-07-N040 and 17-69-12-N005, respectively) can be used for competition experiments (using FP for detection). […] Dissociation of the complex can be measured quantitatively, and the Kd of the competitor (titrant) to the target protein determined. The advantage of the competition method is that the affinities of non-fluoresceinated bicyclic peptides can be determined accurately and rapidly.
Subsequently, the non-fluorescent competitor bicyclic peptide (usually just the bicycle core sequence) is titrated, such that it displaces the fluorescent tracer from the target protein. The displacement of the tracer is measured and associated with a drop in fluorescence polarization. The drop in fluorescence polarization is proportional to the fraction of target protein bound with the non-fluorescent titrant, and thus is a measure of the affinity of titrant to target protein. […]
Background: Polarisation of emitted light reports the rotation of a fluorescent probe.

Data set [1] in a line: Organ distribution of 177Lu-labelled peptides in HT1080 xenograft mice. The note with it: male, BALB/c nu/nu, mouse, HT1080 tumor, iv, total radioactivity; 1 h p.i. of 150 pmoles. The data set is classed as in vivo, BALB/c nu/nu mice. The procedure: as §1, §2, §3, §4, §5

The text below walks through data of patent US12552837B2, “Bicyclic peptide ligands with detectable moieties and uses thereof” (BicycleRD Limited, priority 2017, dated 2026).

*1 amine or outer side, *2 acyl side, *3 side chain or, on linkers, in order; H or OH if unused. Where a SMILES comes first, the peptide text is derived from it. Bridges are numbered along the chain shown (N, C = ends). [ ]: non-standard residue; d: D form. The star is where a group is joined. DOTA = O=C(O)CN1CCN(CC(=O)O)CCN(CC(=O)*)CCN(CC(=O)O)CC1; 1Nal = N[C@@H](Cc1cccc2ccccc12)C(=O)O; TBMB = c1c(C[*:1])cc(C[*:3])cc1C[*:2]; Palmitoyl = CCCCCCCCCCCCCCCC(=O)*; Tle = CC(C)(C)[C@H](N)C(=O)O; Aib = CC(C)(N)C(=O)O; βAla = NCCC(=O)O; Sar = CNCC(=O)O A value given as a limit tells only on which side of the number the result lay.

Take `C[C@H](NC(=O)CN1CCN(CC(=O)O)CCN(CC(=O)O)CCN(CC(=O)O)CC1)C(=O)N[C@H]1CSCc2cc3cc(c2)CSC[C@H](NC(=O)[C@H](C)NC(=O)[C@H](Cc2cccc4ccccc24)NC(=O)[C@H](CCC(=O)O)NC(=O)[C@H](CC(N)=O)NC(=O)[C@@H](C)NC1=O)C(=O)N[C@@H](C)C(=O)N[C@@H](CC(=O)O)C(=O)N[C@@H](Cc1ccccc1)C(=O)N[C@@H](Cc1ccc(O)cc1)C(=O)N[C@@H](CC(=O)O)C(=O)N[C@@H](C(C)(C)C)C(=O)N[C@H](C(N)=O)CSC3` [I-26] ({DOTA}-AC[dA]NE[1Nal]ACADFYD[Tle]C-NH2; linker 2-8-15 via TBMB): the “tumor uptake compared with the binding variant I-23” value with HT1080 tumor (organ distribution, FIG. 8) is on record as “essentially absent”. Besides, the Kd – broadly, a measure of binding affinity in units of concentration – at MT1-MMP hemopexin domain is greater than 5 µM.
As to `C[C@H](NC(=O)CN(C)C(=O)CN(C)C(=O)CN(C)C(=O)CN(C)C(=O)CN(C)C(=O)CN(C)C(=O)CN(C)C(=O)CN(C)C(=O)CN(C)C(=O)CN(C)C(=O)CCNC(=O)CN1CCN(CC(=O)O)CCN(CC(=O)O)CCN(CC(=O)O)CC1)C(=O)N[C@H]1CSCc2cc3cc(c2)CSC[C@H](NC(=O)[C@H](C)NC(=O)[C@H](Cc2cccc4ccccc24)NC(=O)[C@H](CCC(=O)O)NC(=O)[C@H](CC(N)=O)NC(=O)[C@@H](C)NC1=O)C(=O)N[C@@H](C)C(=O)N[C@@H](CC(=O)O)C(=O)N[C@@H](Cc1ccccc1)C(=O)N[C@@H](Cc1ccc(O)cc1)C(=O)N[C@@H](CC(=O)O)C(=O)N[C@@H](C(C)(C)C)C(=O)N[C@H](C(N)=O)CSC3` [I-27] ({DOTA-βAla}-[Sar][Sar][Sar][Sar][Sar][Sar][Sar][Sar][Sar][Sar]AC[dA]NE[1Nal]ACADFYD[Tle]C-NH2; linker 12-18-25 via TBMB), the tissue uptake (commonly the percentage of the injected dose found per gram of tissue) at 1 h in data set [1] amounted to 0.28 ± 0.05 %ID/g. In addition, the dissociation constant Kd at MT1-MMP hemopexin domain was greater than 5 µM.
Turning to `CC(C)[C@H](NC(=O)[C@@H](CC(=O)O)NC(=O)[C@H](Cc1c[nH]cn1)NC(=O)CN(C)C(=O)CN(C)C(=O)CN(C)C(=O)CN(C)C(=O)CN(C)C(=O)CN(C)C(=O)CN(C)C(=O)CN(C)C(=O)CN(C)C(=O)CN(C)C(=O)CCNC(=O)CN1CCN(CC(=O)O)CCN(CC(=O)O)CCN(CC(=O)O)CC1)C(=O)N1CCC[C@H]1C(=O)N[C@H]1CSCc2cc3cc(c2)CSC[C@H](NC(=O)[C@H](Cc2cccc4ccccc24)NC(=O)[C@H](Cc2ccccc2)NC(=O)C(C)(C)NC(=O)CNC(=O)[C@H](Cc2cccc4ccccc24)NC(=O)[C@@H]2CCCN2C1=O)C(=O)N1CCC[C@H]1C(=O)N[C@@H](C(C)(C)C)C(=O)N[C@@H](CC(N)=O)C(=O)N[C@@H](CCCNC(=N)N)C(=O)NC(C)(C)C(=O)N[C@H](CC(=O)O)C(=O)N[C@H](C(N)=O)CSC3` [I-17] ({DOTA-βAla}-[Sar][Sar][Sar][Sar][Sar][Sar][Sar][Sar][Sar][Sar]H[dD]VPCP[1Nal]G[Aib]F[1Nal]CP[Tle]NR[Aib][dD]C-NH2; linker 15-22-29 via TBMB), in the data set on HT1080 tumor (1 h post injection), the “blocking of tumor uptake at a dose of 500 pmoles” value was “slightly blocked” and the “blocking of tumor uptake using 5 nmoles” value is reported as “nearly completely blocked”.
In turn, `CCCCCCCCCCCCCCCC(=O)NCCC(=O)N(C)CC(=O)N(C)CC(=O)N(C)CC(=O)N(C)CC(=O)N(C)CC(=O)N[C@@H](CCCCNC(=O)CN1CCN(CC(=O)O)CCN(CC(=O)O)CCN(CC(=O)O)CC1)C(=O)N(C)CC(=O)N(C)CC(=O)N(C)CC(=O)N(C)CC(=O)N(C)CC(=O)N(C)CC(=O)N(C)CC(=O)N(C)CC(=O)N(C)CC(=O)N(C)CC(=O)N[C@@H](C)C(=O)N[C@H]1CSCc2cc3cc(c2)CSC[C@H](NC(=O)[C@H](C)NC(=O)[C@H](Cc2cccc4ccccc24)NC(=O)[C@H](CCC(=O)O)NC(=O)[C@H](CC(N)=O)NC(=O)[C@@H](C)NC1=O)C(=O)N[C@@H](C)C(=O)N[C@@H](CC(=O)O)C(=O)N[C@@H](Cc1ccccc1)C(=O)N[C@@H](Cc1ccc(O)cc1)C(=O)N[C@@H](CC(=O)O)C(=O)N[C@@H](C(C)(C)C)C(=O)N[C@H](C(N)=O)CSC3` [I-29] ({Palmitoyl-βAla}-[Sar][Sar][Sar][Sar][Sar]K(DOTA)[Sar][Sar][Sar][Sar][Sar][Sar][Sar][Sar][Sar][Sar]AC[dA]NE[1Nal]ACADFYD[Tle]C-NH2; linker 18-24-31 via TBMB) showed a tumour uptake in the data set on HT1080 tumor (750 pmole per mouse, 6 hour timepoint) of 4.8%.
